Experimental data as given in patent US20030165995A1 (Takeda / Millennium, published 2003).

Columns and labels:
[1] = target: T1, CCR6 expressed on transfected L1.2 cells (UniProt P51684 1-374, limits assumed); test: 125I-labeled SExCkine binding to receptor transfectants
T1 construct: whole, on cells
T1 sequence (looked up): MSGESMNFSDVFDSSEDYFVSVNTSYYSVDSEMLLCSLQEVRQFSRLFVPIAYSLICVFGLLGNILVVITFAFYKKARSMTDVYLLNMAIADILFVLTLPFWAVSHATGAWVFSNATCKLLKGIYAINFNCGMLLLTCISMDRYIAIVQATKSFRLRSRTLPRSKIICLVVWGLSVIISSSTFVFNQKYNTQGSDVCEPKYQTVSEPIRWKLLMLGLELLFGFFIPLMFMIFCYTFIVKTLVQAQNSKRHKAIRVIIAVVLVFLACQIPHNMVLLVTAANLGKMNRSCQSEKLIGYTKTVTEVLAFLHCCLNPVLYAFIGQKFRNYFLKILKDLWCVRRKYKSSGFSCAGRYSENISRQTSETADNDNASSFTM

[2] = target: T2, CCR7 expressed on transfected L1.2 cells (UniProt P32248 25-378, limits assumed); test: as above
T2 construct: whole, on cells
T2 sequence (looked up): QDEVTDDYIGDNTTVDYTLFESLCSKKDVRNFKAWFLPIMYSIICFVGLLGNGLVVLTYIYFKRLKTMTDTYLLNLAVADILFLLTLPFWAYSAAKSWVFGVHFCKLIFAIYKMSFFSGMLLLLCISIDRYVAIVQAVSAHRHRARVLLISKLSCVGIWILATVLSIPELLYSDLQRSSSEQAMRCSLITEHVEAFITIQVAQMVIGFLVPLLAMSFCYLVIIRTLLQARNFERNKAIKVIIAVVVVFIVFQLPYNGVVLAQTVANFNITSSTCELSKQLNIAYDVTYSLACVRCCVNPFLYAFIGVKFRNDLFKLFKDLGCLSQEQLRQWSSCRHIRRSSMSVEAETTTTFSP

[3] = target: T3, human Bonzo with N-terminal hemagglutinin (HA) epitope, expressed on transfected L1.2 cells (Bonzo/L1.2 cells) (human, UniProt O00574 1-342); test: Scatchard analysis of 125I-labeled SExCkine binding to Bonzo/L1.2 cells
T3 construct: also called CXCR6; STRL33
T3 sequence: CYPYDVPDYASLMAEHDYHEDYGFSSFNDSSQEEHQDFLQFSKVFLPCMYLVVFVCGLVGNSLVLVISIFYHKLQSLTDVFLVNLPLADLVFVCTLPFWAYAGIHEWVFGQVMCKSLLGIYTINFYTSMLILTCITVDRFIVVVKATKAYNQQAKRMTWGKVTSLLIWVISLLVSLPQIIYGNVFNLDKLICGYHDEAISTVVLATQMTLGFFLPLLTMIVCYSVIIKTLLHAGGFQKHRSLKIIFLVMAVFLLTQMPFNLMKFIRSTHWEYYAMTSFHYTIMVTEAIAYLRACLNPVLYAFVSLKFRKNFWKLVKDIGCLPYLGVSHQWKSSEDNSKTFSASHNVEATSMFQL
Experimental: (§1) The amount of ¹²⁵I-labeled SExCkine (CXCL16) that bound to Bonzo/L1.2 cells was determined by scintillation counting, and % inhibition of binding (0% inhibition is the amount of binding in the absence of unlabeled SExCkine (CXCL16)) was calculated. […] FIG. 43B depicts the Scatchard analysis of the binding data.
(§2) Exponentially-growing Bonzo/L1.2 transfectants were counted on the day of the assay and were resuspended in binding assay buffer (BAB) (10 mM HEPES/1 mM CaCl₂/5 mM MgCl₂/0.5% BSA/0.05% Na Azide) at a density of 2.5×10⁶ cells/mL. Purified recombinant SExCkine (CXCL16) was labeled with I¹²⁵ using a sodium iodine method (Amersham, Arlington Heights, Ill.) and was diluted to 4 nM in BAB. Cold (unlabeled) SExCkine (in PBS at 5.3 μM) was diluted for competition in BAB to 0.4 nM, 2 nM, 4 nM, 20 nM, 40 nM, and 400 nM. […] For calculation of total I¹²⁵ input, 50 μL of cells was added to 25 μL of I¹²⁵I-labeled SExCkine and 25 μL BAB. All tubes were incubated for 1 hour at room temperature, after which time the cells were spun down at 3500 rpm and washed five times in BAB+0.5 M NaCl. After the final wash, the cell pellet was resuspended in 100 μL of wash buffer and the I¹²⁵ counts were calculated using a Cobra II auto-gamma scintillation counter (Packard, Downers Grove, Ill.) along with the total input sample. Binding data was calculated using a program written in Excel.

[4] = target: T3, human Bonzo with N-terminal …; test: competition with 1 nM 125I-labeled SExCkine for binding to Bonzo/L1.2 cells, gamma counting
Experimental: as §1, §2

B1: purified recombinant His-tagged SExCkine (entire predicted extracellular domain, amino acid residues 1 to 202 of SEQ ID NO:4) (ligand)
chain: NEGSVTGSCYCGKRISSDSPPSVQFMNRLRKHLRAYHRCLYYTRFQLLSWSVCGGNKDPWVQELMSCLDLKECGHAYSGIVAHQKHLLPTSPPISQASEGASSDIHTPAQMLLSTLQSTQRPTLPVGSLSSDKELTRPNETTIHTAGHSLAVGPEAGENQKQPEKNAGPTART
modifications: heavily glycosylated; iodinated with 125I where used as tracer
notes: Expressed in 293T cells, purified on wheat germ agglutinin and NiNTA; also called purified recombinant SExCkine (CXCL16); recombinant His-tagged SExCkine protein; not shown: C-terminal His tag from the pEF-His vector
Question: Which results are given for B1?
Answer: binding result [1]: no binding; binding result [2]: no binding; Kd [3]: 1 nM; IC50 [4]: 1 nM
